Data on 2 molecules can be found in patent US20200377556A1 (ABERA BIOSCIENCE, published 2020).

Test [1] has as its target T1, HbpD(Δd1)-SpT (Escherichia coli, UniProt O88093 53-1377).
T1 construct: also called HbpD(Δd1)-SpyTag; Hbp(Δd1)-SpT
Nature of the test: covalent Spy-ligation to S. Typhimurium cells, SDS-PAGE/Coomassie.

Test [2] deals with T1, HbpD(Δd1)-SpT. Nature of the test: SDS-PAGE/Coomassie of S. Typhimurium cells displaying HbpD(Δd1)-SpT incubated with GFPnb-SpC EQ.

B1: GFPnanobody-SpyCatcher (VHH)
VHH: QLVESGGALVQPGGSLRLSCAASGFPVNRYSMRWYRQAPGKEREWVAGMSSAGDRSSYEDSVKGRFTISRDDARNTVYLQMNSLKPEDTAVYYCNVNVGFEYWGQGTQVTVSS
notes: also called GFPnb-SpC; GFPnanobody-SpC
Turning to B1, in the test with HbpD(Δd1)-SpT [1], the binding result is given as “binds”.

B2: GFPnanobody-SpC_EQ (VHH)
VHH: QLVESGGALVQPGGSLRLSCAASGFPVNRYSMRWYRQAPGKEREWVAGMSSAGDRSSYEDSVKGRFTISRDDARNTVYLQMNSLKPEDTAVYYCNVNVGFEYWGQGTQVTVSS
notes: also called GFPnb-SpC EQ; GFPnb fused to SpyCatcher E77Q mutant
With B2, in the test with HbpD(Δd1)-SpT [2], the binding result is recorded as “no binding (tested: 3 µM)”.
